Reference: patent US7186551B1, “3′-phosphoadenosine -5′-phosphosulfate synthetase 2 (PAPSS2) sequence variants” (Mayo Foundation for Medical Education and Research, priority 2001, dated 2007)

Assays:
PAPSS2 [1] = assay: Substrate kinetic studies of recombinant PAPSS2 with ATP and Na2SO4; type: biochemical, human
Description: To estimate apparent Km values of PAPSS2 for the two reaction cosubstrates, a series of ATP (0.125–4 mM) and Na2SO4 (0.125–16 mM) concentrations were tested with the recombinant allozymes. When ATP was the varied substrate, the concentration of Na2SO4 was 4 mM, and when Na2SO4 was the varied substrate, the concentration of ATP was 1 mM. Blanks for each substrate concentration were included by assaying COS-1 cell cytosol after transfection with empty vector.
Data Analysis: Apparent Km values were calculated by using the method of Wilkinson with a computer program written by Cleland. Wilkinson, Biochem. J., 80:324–332 (1961); and Cleland, Nature, 198:[…] (1963). Statistical comparisons of data were performed by ANOVA with the StatView program, version 4.5 (Abacus Concepts, Inc., Berkeley, Calif.). Apparent Km, S50 and Vmax values for the wild-type and variant PAPSS2 allozymes were compared by the use of unpaired Student's t-test.
Alterations in amino acid sequence can alter enzyme substrate affinity and/or catalytic efficiency. Decreased activity of the Val291Met allozyme—without a significant alteration in level of enzyme protein—could have resulted from a change in substrate kinetics. Therefore, a series of ATP (0.125–4 mM) and Na2SO4 (0.125–16 mM) concentrations were used to estimate apparent Km values for recombinant wild type PAPSS2 and for the Val291Met variant allozyme. […] ATP concentrations at which 50% maximal velocity was achieved (S50 values) were 0.70 and 0.95 mM for the wild type and variant allozymes, respectively (Table 4). In both cases, the Hill coefficient was greater than 2, […]. In contrast, substrate kinetics of both allozymes for Na2SO4 conformed to Michaelis-Menten predictions (FIG. 5B). […] In summary, decreased activity for the Val1291Met variant appeared to result from an alteration in substrate kinetics, while decreased activity for the Glu10Lys allozyme, in contrast, resulted primarily from a decrease in the quantity of enzyme protein. Because the Val291Met variant was encoded by a construct that contained the most common PAPSS2 nonsynonymous cSNP, these observations could have functional implications for the sulfate conjugation of both endogenous and/or exogenous compounds.

PAPSS2 [2] = biological target: T1, PAPSS2 (Homo sapiens, UniProt O95340); assay: PAPSS activity of cells transfected with wild type PAPSS2 construct versus empty vector / endogenous activity; type: biochemical; conditions: loxP-modified p91023(b) vector, COS-1 cells
T1 construct: the wild-type full-length open reading frame (ORF) of the human PAPSS2 cDNA; made in house; host or cells: COS-1 or HepG2 cells, transient transfection; cytosol not purified
T1 sequence (O95340 1-614 R426C): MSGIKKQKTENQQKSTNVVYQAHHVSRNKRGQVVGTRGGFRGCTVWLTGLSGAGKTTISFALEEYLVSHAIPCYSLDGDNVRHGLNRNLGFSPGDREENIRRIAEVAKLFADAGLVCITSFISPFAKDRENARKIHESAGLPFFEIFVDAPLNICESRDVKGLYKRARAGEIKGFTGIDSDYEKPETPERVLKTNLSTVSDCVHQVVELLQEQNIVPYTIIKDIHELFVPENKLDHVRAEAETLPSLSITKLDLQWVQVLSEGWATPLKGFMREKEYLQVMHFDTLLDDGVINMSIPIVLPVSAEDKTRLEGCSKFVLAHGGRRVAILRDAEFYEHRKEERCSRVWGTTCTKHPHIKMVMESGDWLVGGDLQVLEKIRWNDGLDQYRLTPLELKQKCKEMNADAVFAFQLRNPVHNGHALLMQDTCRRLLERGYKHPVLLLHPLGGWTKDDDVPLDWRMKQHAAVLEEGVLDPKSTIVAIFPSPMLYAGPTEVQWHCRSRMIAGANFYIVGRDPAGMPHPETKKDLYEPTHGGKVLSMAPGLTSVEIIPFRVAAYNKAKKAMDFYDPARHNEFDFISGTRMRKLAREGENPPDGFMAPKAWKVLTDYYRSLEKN
Description: Initial expression studies were performed with the commercially available pcDNA4/HisMax-E (pcDNA4) acceptor vector (Invitrogen). Specifically, the pUni donor vector, with and without the PAPSS2 cDNA insert, was combined with the pcDNA4 acceptor vector by Cre recombinase through the loxP sites present in both donor and acceptor vectors. The resultant fusion constructs (pUni/pcDNA4) then were used to transfect either COS-1 or HepG2 cells. However, the construct with the wild type PAPSS2 cDNA insert expressed only about 2-fold higher PAPSS activity in both COS-1 and HepG2 cells than did the control “empty” pUni-pcDNA4. This low signal/noise ratio was due in part to the high levels of endogenous PAPSS activity in mammalian cells. Obviously, this situation would have made it difficult to study the functional significance of PAPSS2 non-synonymous cSNPs.
The loxP site required for Cre recombinase-mediated recombination thus was adapted for cloning into the p91023(b) cloning site so a recombination approach could be used to clone PAPSS2 cDNAs into this vector. A 133 base pair pcDNA4 DNA segment (nucleotides 1080–1212) containing the N-terminal His-tag and the loxP site was amplified by PCR, and this amplicon was ligated into the EcoRI site of p91023(b). As a result, the loxP-modified p91023(b) acceptor vector was also able to add an N-terminal His-tag to the expressed protein. […]

[3] = ATP varied 0.125-4 mM, Na2SO4 4 mM, listed as Wild Type

B1: wild type: reference human PAPSS2 polypeptide (SEQ ID NO:9, GenBank AF091242), recombinantly expressed in COS-1 cells (protein, listed as Homo sapiens)
chain: MSGIKKQKTENQQKSTNVVYQAHHVSRNKRGQVVGTRGGFRGCTVWLTGLSGAGKTTISFALEEYLVSHAIPCYSLDGDNVRHGLNRNLGFSPGDREENIRRIAEVAKLFADAGLVCITSFISPFAKDRENARKIHESAGLPFFEIFVDAPLNICESRDVKGLYKRARAGEIKGFTGIDSDYEKPETPERVLKTNLSTVSDCVHQVVELLQEQNIVPYTIIKDIHELFVPENKLDHVRAEAETLPSLSITKLDLQWVQVLSEGWATPLKGFMREKEYLQVMHFDTLLDDGVINMSIPIVLPVSAEDKTRLEGCSKFVLAHGGRRVAILRDAEFYEHRKEERCSRVWGTTCTKHPHIKMVMESGDWLVGGDLQVLEKIRWNDGLDQYRLTPLELKQKCKEMNADAVFAFQLRNPVHNGHALLMQDTCRRLLERGYKHPVLLLHPLGGWTKDDDVPLDWRMKQHAAVLEEGVLDPKSTIVAIFPSPMLYAGPTEVQWHCRSRMIAGANFYIVGRDPAGMPHPETKKDLYEPTHGGKVLSMAPGLTSVEIIPFRVAAYNKAKKAMDFYDPARHNEFDFISGTRMRKLAREGENPPDGFMAPKAWKVLTDYYRSLEKN
S50 for ATP (ATP concentration at which 50% maximal velocity was achieved) (PAPSS2 [1]; ATP varied 0.125-4 mM, Na2SO4 4 mM): 0.70 mM | Hill coefficient, ATP (PAPSS2 [1]; [3]): 5.4 ± 0.1 | S50 for ATP (ATP concentration at which 50% maximal velocity was achieved) (PAPSS2 [1]; [3]): 0.70 ± 0.01 mM | Km (PAPSS2 [1]; apparent Km, Na2SO4 varied 0.125-16 mM, ATP 1 mM): 870 µM | Vmax/S50, ATP (PAPSS2 [1]; ratio, wild type = 100, ATP as varied substrate): 100 | Vmax, ATP (PAPSS2 [1]; relative Vmax, wild type = 100, ATP as varied substrate): 100 | Vmax, Na2SO4 (PAPSS2 [1]; relative Vmax, wild type = 100, Na2SO4 as varied substrate): 100 | increase in PAPSS activity over basal endogenous activity (PAPSS2 [2]): greater than 7 fold
